The results in this text go back to patent US20190177417A1 (BIOATLA, published 2019).

The chains are these.
T1: Axl protein (human, UniProt P30530 26-451)
T1 construct: extracellular domain; also called human Axl; hAxl
T1 sequence (looked up): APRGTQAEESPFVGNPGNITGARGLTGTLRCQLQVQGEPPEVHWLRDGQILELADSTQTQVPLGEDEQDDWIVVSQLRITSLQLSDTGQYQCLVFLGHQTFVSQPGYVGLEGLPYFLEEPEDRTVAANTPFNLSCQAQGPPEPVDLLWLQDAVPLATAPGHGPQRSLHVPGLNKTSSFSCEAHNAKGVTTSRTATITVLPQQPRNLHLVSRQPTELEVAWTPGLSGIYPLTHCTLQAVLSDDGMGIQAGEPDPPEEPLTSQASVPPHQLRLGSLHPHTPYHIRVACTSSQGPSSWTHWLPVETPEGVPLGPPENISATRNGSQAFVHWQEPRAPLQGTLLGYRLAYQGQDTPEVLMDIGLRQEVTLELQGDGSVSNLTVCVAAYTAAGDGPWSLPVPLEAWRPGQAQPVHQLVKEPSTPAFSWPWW

B1: LC-A051N (antibody, V domains shown)
VH: EVQLVQSGAEVKKPGATVKISCKVSGYSFTGHTMNWIRQPPGKGLEWIGLIKPSNGGTSYNQKFKGRVTISADKSISTAYLQWSSLKASDTAMYYCAHGHYESYFAMDYWGQGTLVTVSS
VL: DIQMTQSPSSLSASVGDRVTITCKASQDVSSAVAWYQQKPGQAPRLLIYWNSTRHTGVPSRFSGSGSGTEFTLTISSLQPDDFATYYCQEHFSTPLTFGQGTKVEIK
B2: LC-P095C (antibody, V domains shown)
VH: B1 VH
VL: B1 VL with N51A, P95C
B3: LC-H091C (antibody, V domains shown)
VH: B1 VH
VL: B1 VL with N51A, H91C
B4: LC-P095T (antibody, V domains shown)
VH: B1 VH
VL: B1 VL with N51A, P95T
B5: LC-P095A (antibody, V domains shown)
VH: B1 VH
VL: B1 VL with N51A, P95A
B6: LC-L096R (antibody, V domains shown)
VH: B1 VH
VL: B1 VL with N51A, L96R
B7: LC-P095H (antibody, V domains shown)
VH: B1 VH
VL: B1 VL with N51A, P95H
B8: LC-P095D (antibody, V domains shown)
VH: B1 VH
VL: B1 VL with N51A, P95D
B9: LC-P095V (antibody, V domains shown)
VH: B1 VH
VL: B1 VL with N51A, P95V
B10: LC-H091F (antibody, V domains shown)
VH: B1 VH
VL: B1 VL with N51A, H91F
B11: LC-H091I (antibody, V domains shown)
VH: B1 VH
VL: B1 VL with N51A, H91I
B12: LC-P095K (antibody, V domains shown)
VH: B1 VH
VL: B1 VL with N51A, P95K
B13: LC-P095S (antibody, V domains shown)
VH: B1 VH
VL: B1 VL with N51A, P95S
B14: LC-L096G (antibody, V domains shown)
VH: B1 VH
VL: B1 VL with N51A, L96G
B15: LC-T097I (antibody, V domains shown)
VH: B1 VH
VL: B1 VL with N51A, T97I
B16: LC-P095E (antibody, V domains shown)
VH: B1 VH
VL: B1 VL with N51A, P95E
B17: LC-H091Q (antibody, V domains shown)
VH: B1 VH
VL: B1 VL with N51A, H91Q
B18: LC-A051P (antibody, V domains shown)
VH: B1 VH
VL: B1 VL with N51P
B19: LC-P095W (antibody, V domains shown)
VH: B1 VH
VL: B1 VL with N51A, P95W
B20: LC-H091L (antibody, V domains shown)
VH: B1 VH
VL: B1 VL with N51A, H91L

Where a chain is given by its changes, count along the chain named. Names and notes keep the numbering of the source.

The first experiment has as its target T1, Axl protein. Description: ELISA, 1:9 dilution, pH 6.0 over pH 7.4. (In general: ELISA stands for enzyme-linked immunosorbent assay.)
In the case of B1, the “Affinity ELISA CPE mutant ratio (1:9, pH 6.0/7.4)” value was determined as 2.2 ratio.
On the same count and under the same terms, the same measure for B2: 2.63 ratio; for B3: 3.02 ratio.
With B4, the “Affinity ELISA CPE mutant ratio (1:9, pH 6.0/7.4)” value came out at 2.09 ratio.
For B5, the “Affinity ELISA CPE mutant ratio (1:9, pH 6.0/7.4)” value was 2.99 ratio.
Consider B6, for which the “Affinity ELISA CPE mutant ratio (1:9, pH 6.0/7.4)” value was determined as 2.18 ratio.
Same read-out and setting: to B7 belongs 2.75 ratio.
Same read-out and setting: to B8 belongs 2.89 ratio; to B9, 2.13 ratio; to B10, 2.12 ratio.
Same read-out and setting: the same measure for B11: 2.15 ratio; for B12: 3.47 ratio.
With B13, the “Affinity ELISA CPE mutant ratio (1:9, pH 6.0/7.4)” value turned out to be 3.51 ratio.
The same measure, in the same setting: to B14 belongs 2.44 ratio; to B15, 4.05 ratio; to B16, 7.51 ratio.
Still for that read-out and setting: to B17 belongs 2.01 ratio; to B18, 1.57 ratio; to B19, 2.26 ratio.
Consider B20, for which the “Affinity ELISA CPE mutant ratio (1:9, pH 6.0/7.4)” value was found to be 2.08 ratio.

A further experiment deals with T1, Axl protein. Kind of experiment: ELISA, 1:3 dilution, pH 6.0 over pH 7.4.
Consider B1, for which the “Affinity ELISA CPE mutant ratio (1:3, pH 6.0/7.4)” value stood at 1.41 ratio.
Consider B2, for which the “Affinity ELISA CPE mutant ratio (1:3, pH 6.0/7.4)” value was found to be 2.35 ratio.
Still for that read-out and setting: to B3 belongs 4 ratio; to B4, 2.5 ratio.
On the same count and under the same terms, the same measure for B5: 2.52 ratio; for B6: 2.88 ratio; for B7: 2.5 ratio.
Turning to B8, the “Affinity ELISA CPE mutant ratio (1:3, pH 6.0/7.4)” value is 3.95 ratio.
The same measure, in the same setting: to B9 belongs 1.87 ratio; to B10, 1.6 ratio; to B11, 1.55 ratio.
Still for that read-out and setting: the same measure for B12: 3.84 ratio; for B13: 2.84 ratio; for B14: 2.17 ratio.
On the same count and under the same terms, the same measure for B15: 3.09 ratio; for B16: 7.12 ratio.
With B17, the “Affinity ELISA CPE mutant ratio (1:3, pH 6.0/7.4)” value was determined as 1.77 ratio.
In the case of B18, the “Affinity ELISA CPE mutant ratio (1:3, pH 6.0/7.4)” value turned out to be 1.92 ratio.
The same measure, in the same setting: the same measure for B19: 2.15 ratio; for B20: 2.8 ratio.
